Laboratory results published in patent publication US20230227580A1, “ANTI-VWF ANTIBODIES AND USES THEREOF” (MONASH UNIVERSITY, priority 2020, published 2023).
Where no end group is shown, it is not given here.

Legend:
[1] = molecular target: VWF (Homo sapiens, UniProt P04275); assay: VWF binding in the presence or absence of ristocetin (FIG. 7)
[2] = system: thrombus formation / platelet deposition; assay: Thrombus formation on collagen type I in stenosis channels (SRG versus constant shear); format: cell-based, human; conditions: 15 minutes of blood flow; for Platelet deposition: 0.1 µM OS-1
Excerpt: (§1) In-house designed PDMS microfluidic chips (FIG. 1A) contained channels of 52 µm height with a footprint of 300 µm x 46 mm (used in FIG. 1) or 300 µm x 17 mm. Selected channels incorporated a semi-circular stenotic section of various lengths (600 µm, 1000 µm or 2000 µm diameter), creating 80% lumen reduction. Chips were manufactured as previously reported (Westein et al. Proceedings of the National Academy of Sciences of the United States of America. 2013 Jan 22;110(4):1357-62). The produced PDMS chips were sealed with cover slips by hydrophobic interaction and coated with collagen by perfusion of collagen solution followed by static incubation at RT for at least 1 hr. Channels were rinsed with PBS and blocked with 2% BSA. Wall shear rates of the input flow for these microchannels were approximated from volumetric flow rates by using the equation, γ = 6Q/wh2. Herein, γ is the wall shear rate (s^-1), Q the volumetric flow rate (mls^-1), w the channel with (cm) and h the channel height (cm).
(§2) Citrated whole blood was incubated with DiOC6 (0.5 µg ml^-1) (Sigma-Aldrich Co, St. Louis, MO, USA) and drawn through microfluidic channels by a programmable syringe pump (Legato 130, KD Scientific, USA). Time-lapse z-stack images of platelet deposition were captured in multiple track, resonant scanning mode, using a Nikon A1R confocal microscope system. Platelet deposition was recorded over time (2 frames per minute) for up to 20 minutes and quantified in ImageJ using a Z-projection of the acquired signal.

[3] = molecular target: T1, platelet GPIbα (Homo sapiens, UniProt P07359); assay: Platelet adhesion to collagen III under constant shear, whole blood perfusion with OS-1; format: cell-based; conditions: for Numbers of adherent platelets: 20 µg ml^-1 abciximab; for Platelet adhesion (relative, fluorescence intensity): collagen III, 1,500 s^-1
T1 construct: endogenous in cells; host or cells: platelets in citrated whole blood
Excerpt: as §1, §2
For experiments measuring rolling velocities, anti αllbβ3 antibody (abciximab; 20 µg ml^-1)-treated whole blood containing 0.5 µg ml^-1 DiOC6 was drawn over a collagen type III-coated surface. Where indicated, blood was incubated with 30 µM aspirin (Sigma Aldrich, USA) and 300 µM 2-MeSAMP (Sigma-Aldrich Co, St. Louis, MO, USA) prior to blood perfusion. 10 second video clips of rolling platelets were recorded in the green fluorescent channel using an Olympus IX81 microscope system. Platelet rolling velocities were calculated using Diatrack v3.04 large scale particle tracking software (Vallotton et al. Microsc Microanal. 2013 Apr;19(2):451-60).

Substance | Mechanism of VWF binding (dependence on conformation) [1] | Platelet deposition ([2]; constant shear) | Platelet deposition ([2]; shear gradient conditions) | Thrombus formation ([2]; 2000 s^-1 constant shear) | Thrombus formation ([2]; SRGs (187-1,500 s^-1)) | Thrombus formation ([2]; SRGs (300-2,000 s^-1)) | Numbers of adherent platelets ([3]; 3 µM OS-1, constant shear 2,000 s^-1) [platelets per field] | Numbers of adherent platelets ([3]; 3 µM OS-1, constant shear above 500 s^-1) [platelets per field] | Platelet adhesion (relative, fluorescence intensity) ([3]; 3 µM OS-1) | Platelet adhesion (relative, fluorescence intensity) ([3]; increasing concentrations of OS-1)
Cablivi: commercially available antibody (Cablivi®, Sanofi) binding VWF [reference compound] | conformation independent | – | – | – | – | – | – | – | – | –
OS-1: cyclic peptide, allosteric inhibitor of GPlbα/VWF interactions with sequence CTERMALHNLC, obtained from Auspep (also: cyclic peptide, ring not described) [reference compound] | – | inhibited | inhibited | reduced thrombus formation | inhibited thrombus formation | inhibited thrombus formation | 11±4 | 53±4 | completely abolished | concentration dependently reduced
